Experiments:
[1] = target: collagen-exposing bone material of epiphysis (rat femur, 0.6 N hydrochloric acid for 18 hours) (rat (Wistar)); assay: depletion from supernatant, SDS-PAGE of supernatant (FIG. 3B)
[2] = target: collagen-exposing bone material of diaphysis (rat femur, 0.6 N hydrochloric acid for 18 hours) (rat (Wistar)); assay: depletion from supernatant, SDS-PAGE of supernatant (FIG. 4B)

bFGF-PKD-CBD fusion protein showed an amount of bone material at which the fusion protein (1.16 nmol) in the supernatant nearly disappeared [1] of 40 mg and an amount of bone material at which the fusion protein (1.16 nmol) in the supernatant nearly disappeared [2] of 80 mg.

— patent US20140335146A1
